# Target: Flag-importin α1 (human, UniProt P52292 1-529)
# Experiment: pull-down
binder,measurement,value
GST-GFP fused ORF6 full-length protein (natural protein) MFHLVDFQVTIAEILLIIMRTFKVSIWNLDYIINLIIKNLSKSLTENKYSQLDEEQPMEID,binding result,binds

# Reference: paper doi:10.1101/2021.02.24.432656 (bioRxiv, 2021)
